Experiment [1] has as its target T1, melanocortin-1 receptor (MC1R) (UniProt Q01726 1-317, limits assumed).
T1 construct: whole, on cells; also called Hek293/MC1R cells; A375/MC1R cells
The experiment is described as follows: TRF saturation binding with the Eu chelate on Hek293/MC1R cells; specific = total minus nonspecific (20x MC1RL-DOTA block). How it is done: The binding sequence is 1-Phenylbutyric acid-His(D)Phe-Arg-Trp-Gly-Lys(D-di-Glu-DOTA)-CONH₂. Eu is chelated into the conjugated DOTA for lanthanide-based binding assays but ²²⁵Ac, ⁶⁸Ga, or ¹¹¹In can also be chelated. […] 20×MC1Rl-DOTA was used for blocking. […] Data is the result of two repeats.
(§1) Time-resolved fluorescence (TRF) competition binding assays were performed to determine binding affinities of these DOTA conjugates (FIG. 2). The TRF method takes advantage of the long fluorescence lifetime of the lanthanide Europium and can detect less than one attomole in a multiwell plate sample. Hek293/MC1R cells (Hek293 cells engineered to over-express MC1R) were used for the binding assays. Saturation TRF binding assays were performed using versions of the compounds with chelated europium to determine specific and non-specific binding (FIG. 17-20).

Experiment [2] concerns the target T1, melanocortin-1 receptor (MC1R). The experiment is described as follows: time-resolved fluorescence (TRF) competition binding assay on Hek293/MC1R cells. Here is the method:
as §1

Experiment [3] shares this target. The experiment can be described thus: not stated in the sentence (binding affinity of the DOTA conjugate and its chelates).
The target is the same in experiment [4]. The experiment can be described thus: competitive binding assay (FIG. 2). How it is done:
as §1

Square brackets hold non-standard residues; d marks the D form. Side chains are listed from the residue outwards. Ends that are not written are not given here. * marks the point of attachment. 1‑phenylbutyric acid = 1-phenylbutyric acid (N-terminal acyl cap); D‑di‑Glu = D-di-Glu linker between Lys side chain and DOTA; DOTA = O=C(O)CN1CCN(CC(=O)O)CCN(CC(=O)*)CCN(CC(=O)O)CC1; Ahx = NCCCCCC(=O)O

T1 sequence (Q01726 whole entry): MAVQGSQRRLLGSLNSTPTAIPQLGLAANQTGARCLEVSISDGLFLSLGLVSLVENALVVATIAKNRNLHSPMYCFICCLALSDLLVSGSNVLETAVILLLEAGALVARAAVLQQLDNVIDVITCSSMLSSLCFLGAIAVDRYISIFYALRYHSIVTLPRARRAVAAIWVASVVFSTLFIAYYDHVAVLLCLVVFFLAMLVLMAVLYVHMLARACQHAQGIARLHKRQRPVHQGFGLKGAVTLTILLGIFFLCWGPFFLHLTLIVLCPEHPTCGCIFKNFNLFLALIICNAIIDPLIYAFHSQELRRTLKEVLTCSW

B1: MC1RL linked to DOTA:^152Eu (peptide)
peptide: {1‑phenylbutyric acid}-H[dF]RWGK(DOTA)-NH2
modifications: also: 152Eu chelate
notes: also called 1-Phenylbutyric acid-His(D)Phe-Arg-Trp-Gly-Lys(DOTA)-CONH2, Eu chelate
In the case of B1, binding in experiment [1] was put at a Kd of 0.69 nM.

B2: DOTA-MC1RL (unlabeled) (peptide)
peptide: H[dF]RWGK([Ahx-DOTA])-NH2
modifications: not fully specified (N-terminus)
notes: also called MC1RL-DOTA; DOTA labeled conjugate of the MC1R specific ligand
For the molecule B2, the Ki in experiment [2] came to 0.24 nM; in experiment [3], 0.3 nM.

B3: ^67/69Ga-DOTA-MC1RL (peptide)
peptide: H[dF]RWGK([Ahx-DOTA])-NH2
modifications: not fully specified (N-terminus); also: nonradioactive 67/69Ga chelated by DOTA
notes: Nonradioactive surrogate of the ^68Ga PET agent
In experiment [2], B3 came in with a Ki of 0.34 nM. That is a sub-nanomolar value.

B4: MC1RL linked through aminohexanoic acid (Ahx) to DOTA:^152Eu (peptide)
peptide: {1‑phenylbutyric acid}-H[dF]RWGK([Ahx-DOTA])-NH2
modifications: also: 152Eu chelate
notes: also called 1-Phenylbutyric acid-His(D)Phe-Arg-Trp-Gly-Lys(Ahx-DOTA)-CONH2, Eu chelate
B4 registered a Kd in experiment [1] of 0.88 nM. This counts as sub-nanomolar.

B5: ^139La-DOTA-MC1RL (peptide)
peptide: H[dF]RWGK([Ahx-DOTA])-NH2
modifications: not fully specified (N-terminus); also: 139La chelated by DOTA
notes: Nonradioactive surrogate of ^225Ac-DOTA-MC1RL; also called cold agent
As to B5, the Ki in experiment [4] is 0.2 nM; in experiment [2], 0.23 nM.

B6: MC1RL linked through D-di-Glu to DOTA:^152Eu (peptide)
peptide: {1‑phenylbutyric acid}-H[dF]RWGK([D‑di‑Glu-DOTA])-NH2
modifications: also: 152Eu chelate
notes: also called 1-Phenylbutyric acid-His(D)Phe-Arg-Trp-Gly-Lys(D-di-Glu-DOTA)-CONH2, Eu chelate
Molecule B6 showed a Kd in experiment [1] of 0.19 nM.

The values above are taken from patent US20180126013A1 (H LEE MOFFITT CANCER CENTER AND RESEARCH INSTITUTE, published 2018).
